Experimental data from paper PMC6451107, “Structural insights reveal the specific recognition of roX RNA by the dsRNA-binding domains of the RNA helicase MLE and its indispensable role in dosage compensation in Drosophila”.

What was measured:
Assay in all cases: fluorescence polarization; FP: 80 nM 3'-FAM RNA stock mixed 1:1 with protein, buffer D (composition not in material), 15 min, 20 C; EMSA: 1200 nM RNA stock mixed 1:1 with protein, buffer
[1] = target: MLE dsRBD1+2 N223A/K224A/K225A (Drosophila, UniProt P24785 1-264, N223A;K224A;K225A); conditions: protein: recombinant; tags: SUMO tag removed by ULP1; label: 3'-FAM; hairpin, 13 nt loop (C135-C147)
MLE dsRBD1+2 H196A = MLE dsRBD1+2 H196A (Drosophila, UniProt P24785 1-264, H196A); conditions: protein: recombinant; tags: SUMO tag removed by ULP1; label: 3'-FAM; hairpin, 13 nt loop (C135-C147)
MLE dsRBD1+2 K171A = MLE dsRBD1+2 K171A (Drosophila, UniProt P24785 1-264, K171A); conditions: protein: recombinant; tags: SUMO tag removed by ULP1; label: 3'-FAM; hairpin, 13 nt loop (C135-C147)
MLE dsRBD1+2 K4E/S5A = MLE dsRBD1+2 K4E/S5A (Drosophila, UniProt P24785 1-264, K4E;S5A); conditions: protein: recombinant; tags: SUMO tag removed by ULP1; label: 3'-FAM; hairpin, 13 nt loop (C135-C147)
MLE dsRBD1+2 S5A = MLE dsRBD1+2 S5A (Drosophila, UniProt P24785 1-264, S5A); conditions: protein: recombinant; tags: SUMO tag removed by ULP1; label: 3'-FAM; hairpin, 13 nt loop (C135-C147)
MLE dsRBD1+2 K229A = MLE dsRBD1+2 K229A (Drosophila, UniProt P24785 1-264, K229A); conditions: protein: recombinant; tags: SUMO tag removed by ULP1; label: 3'-FAM; hairpin, 13 nt loop (C135-C147)
[2] = target: MLE dsRBD1+2 N52A/K53E/K54E/K58E (Drosophila, UniProt P24785 1-264, N52A;K53E;K54E;K58E); conditions: protein: recombinant; tags: SUMO tag removed by ULP1; label: 3'-FAM; hairpin, 13 nt loop (C135-C147)
MLE dsRBD1+2 K171E = MLE dsRBD1+2 K171E (Drosophila, UniProt P24785 1-264, K171E); conditions: protein: recombinant; tags: SUMO tag removed by ULP1; label: 3'-FAM; hairpin, 13 nt loop (C135-C147)
[3] = target: MLE dsRBD1+2 N223A/K224E/K225E/K229E (Drosophila, UniProt P24785 1-264, N223A;K224E;K225E;K229E); conditions: protein: recombinant; tags: SUMO tag removed by ULP1; label: 3'-FAM; hairpin, 13 nt loop (C135-C147)
MLE dsRBD1+2 K4A = MLE dsRBD1+2 K4A (Drosophila, UniProt P24785 1-264, K4A); conditions: protein: recombinant; tags: SUMO tag removed by ULP1; label: 3'-FAM; hairpin, 13 nt loop (C135-C147)
[4] = target: MLE dsRBD1+2 N52A/K53A/K54A (Drosophila, UniProt P24785 1-264, N52A;K53A;K54A); conditions: protein: recombinant; tags: SUMO tag removed by ULP1; label: 3'-FAM; hairpin, 13 nt loop (C135-C147)
MLE dsRBD1+2 K4E = MLE dsRBD1+2 K4E (Drosophila, UniProt P24785 1-264, K4E); conditions: protein: recombinant; tags: SUMO tag removed by ULP1; label: 3'-FAM; hairpin, 13 nt loop (C135-C147)
MLE dsRBD1+2 K4A/S5A = MLE dsRBD1+2 K4A/S5A (Drosophila, UniProt P24785 1-264, K4A;S5A); conditions: protein: recombinant; tags: SUMO tag removed by ULP1; label: 3'-FAM; hairpin, 13 nt loop (C135-C147)
MLE dsRBD1+2 H196E = MLE dsRBD1+2 H196E (Drosophila, UniProt P24785 1-264, H196E); conditions: protein: recombinant; tags: SUMO tag removed by ULP1; label: 3'-FAM; hairpin, 13 nt loop (C135-C147)
MLE dsRBD1+2 K171E/N175A = MLE dsRBD1+2 K171E/N175A (Drosophila, UniProt P24785 1-264, K171E;N175A); conditions: protein: recombinant; tags: SUMO tag removed by ULP1; label: 3'-FAM; hairpin, 13 nt loop (C135-C147)
MLE dsRBD1+2 N175A = MLE dsRBD1+2 N175A (Drosophila, UniProt P24785 1-264, N175A); conditions: protein: recombinant; tags: SUMO tag removed by ULP1; label: 3'-FAM; hairpin, 13 nt loop (C135-C147)
MLE dsRBD1+2 WT = MLE dsRBD1+2 WT (Drosophila, UniProt P24785 1-264); conditions: protein: recombinant, tags: SUMO tag (N-terminal, with Ni-NTA purification) removed by ULP1, label: 3'-FAM, hairpin
MLE dsRBD1+2 E195A = MLE dsRBD1+2 E195A (Drosophila, UniProt P24785 1-264, E195A); conditions: protein: recombinant; tags: SUMO tag removed by ULP1; label: 3'-FAM; hairpin, 13 nt loop (C135-C147)
MLE dsRBD1+2 K58A = MLE dsRBD1+2 K58A (Drosophila, UniProt P24785 1-264, K58A); conditions: protein: recombinant; tags: SUMO tag removed by ULP1; label: 3'-FAM; hairpin, 13 nt loop (C135-C147)
MLE dsRBD1+2 E172A = MLE dsRBD1+2 E172A (Drosophila, UniProt P24785 1-264, E172A); conditions: protein: recombinant; tags: SUMO tag removed by ULP1; label: 3'-FAM; hairpin, 13 nt loop (C135-C147)
MLE dsRBD1+2 N29A = MLE dsRBD1+2 N29A (Drosophila, UniProt P24785 1-264, N29A); conditions: protein: recombinant; tags: SUMO tag removed by ULP1; label: 3'-FAM; hairpin, 13 nt loop (C135-C147)
MLE dsRBD2 = MLE dsRBD2 (Drosophila, UniProt P24785 152-264); conditions: protein: recombinant; tags: SUMO tag removed by ULP1; label: 3'-FAM; hairpin, 13 nt loop (C135-C147)
MLE dsRBD1 = MLE dsRBD1 (Drosophila, UniProt P24785 1-87); conditions: protein: recombinant; tags: SUMO tag removed by ULP1; label: 3'-FAM; hairpin, 13 nt loop (C135-C147)

B1: R2H1 55mer (FAM) (structured_RNA)
RNA: GCUUUAGAGAUCGUUUCGAAUCACAUUGAUAAUCGUUCGAAACGUUCUCCGAAGC
Kd [1]: 18.9 ± 1.45 µM | Kd (MLE dsRBD1+2 H196A): 3.02 ± 0.2 µM | Kd (MLE dsRBD1+2 K171A): 4.58 ± 0.68 µM | Kd (MLE dsRBD1+2 K4E/S5A): 8.05 ± 0.34 µM | Kd (MLE dsRBD1+2 S5A): 1.8 ± 0.24 µM | Kd (MLE dsRBD1+2 K229A): 0.88 ± 0.18 µM | Kd [2]: 12.5 ± 1.51 µM | Kd (MLE dsRBD1+2 K171E): 8.21 ± 0.26 µM | Kd [3]: 60.1 ± 6.55 µM | Kd (MLE dsRBD1+2 K4A): 4.18 ± 0.27 µM | Kd [4]: 7.7 ± 0.36 µM | Kd (MLE dsRBD1+2 K4E): 6.55 ± 0.56 µM | Kd (MLE dsRBD1+2 K4A/S5A): 4.49 ± 0.54 µM | Kd (MLE dsRBD1+2 H196E): 7.24 ± 0.65 µM | Kd (MLE dsRBD1+2 K171E/N175A): 10.3 ± 1.14 µM | Kd (MLE dsRBD1+2 N175A): 1.31 ± 0.26 µM | Kd (MLE dsRBD1+2 WT; 13 nt loop (C135-C147)): 0.2 ± 0.03 µM | Kd (MLE dsRBD1+2 E195A): 0.15 ± 0.03 µM | Kd (MLE dsRBD1+2 K58A): 2.38 ± 0.13 µM | Kd (MLE dsRBD1+2 E172A): 0.18 ± 0.04 µM | Kd (MLE dsRBD1+2 N29A): 0.43 ± 0.07 µM | binding signal (MLE dsRBD2): ~4.5 fold weaker than dsRBD1+2 | binding signal (MLE dsRBD1): ~44 fold weaker than dsRBD1+2

B2: R2H1 U124A (structured_RNA)
RNA: GCUUUAGAGAACGUUUCGAAUCACAUUGAUAAUCGUUCGAAACGUUCUCCGAAGC
Kd (MLE dsRBD1+2 WT): 1.03 ± 0.12 µM

B3: R2H1 U134C/C135G (structured_RNA)
RNA: GCUUUAGAGAUCGUUUCGAACGACAUUGAUAAUCGUUCGAAACGUUCUCCGAAGC
Kd (MLE dsRBD1+2 WT): 0.43 ± 0.05 µM

B4: R2H1 U118C/A119G (structured_RNA)
RNA: GCUUCGGAGAUCGUUUCGAAUCACAUUGAUAAUCGUUCGAAACGUUCUCCGAAGC
Kd (MLE dsRBD1+2 WT): 0.42 ± 0.06 µM
